In patent US20080146500A1, “Selective Vpac2 Receptor Peptide Agonists” (priority 2004, published 2008):
Ends that are not written are not given here.

Experiments:
[1] = biological target: T1, human VPAC2 (Homo sapiens, UniProt P41587); experiment: Alpha screen in vitro potency: human VPAC2-R mediated cAMP generation; format: cell-based; conditions: single results or mean of two or more independent runs
T1 construct: expressed in transfected cells
T1 sequence (P41587 24-438): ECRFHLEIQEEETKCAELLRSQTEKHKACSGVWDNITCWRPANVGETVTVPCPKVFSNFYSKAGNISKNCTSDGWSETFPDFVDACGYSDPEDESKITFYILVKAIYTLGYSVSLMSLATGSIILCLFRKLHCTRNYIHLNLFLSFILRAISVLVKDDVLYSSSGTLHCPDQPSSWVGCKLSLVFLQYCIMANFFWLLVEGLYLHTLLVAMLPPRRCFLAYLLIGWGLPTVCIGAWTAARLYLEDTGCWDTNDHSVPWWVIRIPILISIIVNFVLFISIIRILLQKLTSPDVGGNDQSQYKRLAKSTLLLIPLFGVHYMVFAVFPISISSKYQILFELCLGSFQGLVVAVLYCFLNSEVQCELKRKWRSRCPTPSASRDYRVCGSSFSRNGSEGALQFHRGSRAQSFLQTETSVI

[2] = biological target: T1, human VPAC2; experiment: Filter binding assay, membranes from stable VPAC2 cell line, 125I-labeled VIP tracer; conditions: read-out: Human receptor binding (IC50; nM) VPAC2
Procedure: (§1) For this assay, the solutions and equipment include:
(§2) Presoak solution: 0.5% Polyethyleneamine in Aqua dest.
(§3) Buffer for flushing filter plates: 25 mM HEPES pH 7.4
(§4) Blocking buffer: 25 mM HEPES pH 7.4; 0.2% protease free BSA
(§5) Assay buffer: 25 mM HEPES pH 7.4; 0.5% protease free BSA
(§6) Dilution and assay plate: PS-Microplate, U form
(§7) Filtration Plate Multiscreen FB Opaque Plate; […] Type B Glasfiber filter
(§8) In order to prepare the filter plates, the presoak solution is aspirated by vacuum filtration. The plates are flushed twice with 200 μL flush buffer. 200 μL blocking buffer is added to the filter plate. The filter plate is then incubated with 200 μL presoak solution for 1 hour at room temperature.
(§9) The assay plate is filled with […] (2.5 μg) suspended in assay buffer, 25 μL compound (agonist) in assay buffer, and 25 μL tracer (about 40000 cpm) in assay buffer. The filled plate is incubated for 1 hour with shaking.
(§10) The transfer from assay plate to filter plate is conducted. The blocking buffer is aspirated by vacuum filtration and washed two times with flush buffer. 90 μL is transferred from the assay plate to the filter plate. The 90 μL transferred from assay plate is aspirated and washed three times with 200 μL flush buffer. The plastic support is removed. It is dried for 1 hour at 60° C. 30 μL Microscint is added. The count is performed.
(§11) Values reported are single results or the mean of two or more independent runs.

[3] = biological target: T2, human PAC1 (Homo sapiens, UniProt P41586); experiment: Filter binding assay, membranes from cells transiently transfected with human PAC1, 125I-labeled PACAP-27 tracer; conditions: read-out: Human receptor binding (IC50; nM) PAC1
T2 construct: expressed in transfected cells
T2 sequence (P41586 21-468): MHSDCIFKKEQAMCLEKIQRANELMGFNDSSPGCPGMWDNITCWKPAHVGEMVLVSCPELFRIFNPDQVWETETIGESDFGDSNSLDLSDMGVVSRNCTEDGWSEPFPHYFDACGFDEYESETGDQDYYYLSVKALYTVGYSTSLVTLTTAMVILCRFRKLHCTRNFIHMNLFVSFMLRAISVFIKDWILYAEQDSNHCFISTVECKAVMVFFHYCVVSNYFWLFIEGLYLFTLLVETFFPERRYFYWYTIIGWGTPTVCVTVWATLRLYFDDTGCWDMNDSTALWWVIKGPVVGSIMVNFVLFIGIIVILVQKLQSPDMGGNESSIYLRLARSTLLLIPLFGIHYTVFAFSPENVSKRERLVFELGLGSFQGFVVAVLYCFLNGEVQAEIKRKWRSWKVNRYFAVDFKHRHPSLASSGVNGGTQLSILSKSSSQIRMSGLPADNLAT
Procedure: as §1, §2, §3, §4, §5, §6, §7, §8, §9, §10, §11

[4] = biological target: T3, rat VPAC2 receptor (Rattus norvegicus, UniProt P35000); experiment: Rat VPAC2 in vitro potency (cAMP generation, DiscoveRx) in transiently transfected CHO-PO cells; format: cell-based; conditions: CHO-PO cells transiently transfected with rat VPAC2; read-out: rVPAC2 in vitro potency (cAMP generation) EC50
T3 construct: expressed in transfected cells; host or cells: CHO-PO cells, transient
T3 sequence (P35000 23-437): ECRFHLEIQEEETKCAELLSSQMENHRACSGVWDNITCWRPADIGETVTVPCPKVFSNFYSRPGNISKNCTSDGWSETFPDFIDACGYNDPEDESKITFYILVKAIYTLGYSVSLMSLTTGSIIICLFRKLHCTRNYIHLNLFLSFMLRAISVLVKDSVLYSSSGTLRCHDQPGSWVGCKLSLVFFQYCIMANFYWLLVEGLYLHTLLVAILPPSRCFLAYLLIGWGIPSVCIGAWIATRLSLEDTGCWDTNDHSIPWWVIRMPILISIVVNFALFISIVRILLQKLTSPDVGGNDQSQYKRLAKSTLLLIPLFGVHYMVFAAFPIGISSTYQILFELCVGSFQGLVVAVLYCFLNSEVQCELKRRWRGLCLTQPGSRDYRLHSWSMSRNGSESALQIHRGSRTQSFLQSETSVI
Procedure: Rat receptor selectivity is estimated by comparing functional potency (cAMP generation) in CHO-PO cells transiently expressing rat VPAC1 or rat VPAC2 receptors. CHO-PO cells transiently expressing rat VPAC1 or VPAC2, are seeded with 10,000 cells/well three days before the assay. The cells are kept in 200 μL culture medium. […] The stimuli are present for 30 minutes. The assay buffer is then gently removed.

[5] = Pharmacokinetic profiles of PEGylated peptides, plasma peptide by RIA; format: in vivo, Fisher 344 rats; conditions: Fisher 344 rats, 100 μg compound/kg, plasma RIA, mean N = 3
Procedure: Pharmacokinetic profiles of PEGylated peptides. Healthy Fisher 344 rats (3 animals per group) are injected with 100 μg compound/kg (compound amount based on peptide content and dissolved in PBS buffer). […] PK parameters are then calculated using a model-independent method (WinNonlin Pro, Pharsight Corp., Mountain View, Calif., USA).

Substance	EC50 [1] [nM]	IC50 [2] [nM]	IC50 [3] [nM]	EC50 [4] [nM]	AUC0-last [5] [ng·h/mL]	Cl/F [5] [mL/min/kg]	Cmax [5] [ng/mL]	Tmax [5] [h]	T½ [5] [h]
C6-HDAVFTEQY(OMe)TOrnLRAibQVAAAibOrnYLQSIOrnOrnGGPSSGAPPPC(PEG60K)-NH2 [Agonist P404]	17	13.1	> 25000	24.4	6070	0.283	133	20	23
C6-HSDAVFTDNYTOrnLRAibQVAAAibKYLQC(PEG40K)IOrnNOrnGGPSSGAPPPS (HSDAVFTDNYTXLRXQVAAXKYLQCIXNXGGPSSGAPPPS; non-natural residues) [Agonist P373]	33.9	111	> 25000	72.2	10803	0.167	240	13	31
C6-HSDAVFTEQY(OMe)TOrnLRAibQVAK(CO(CH2)2SPEG40K)AibOrnYLQSIOrnOrnGGPSSGAPPPS-NH2 (HSDAVFTEQYTXLRXQVAXXXYLQSIXXGGPSSGAPPPS; non-natural residues) [Agonist P432]	20.1	130	> 25000	16.7	21471	0.083	392	16	35
P137: PEGylated material obtained from P120 and methoxy-PEG2-MAL-40K (HSDAVFTDNYTRLRKQVAAKKYLQSIKNKRYGGPSSGAPPPC; also: PEGylated with methoxy-PEG2-MAL-40K, site not given here) [Agonist P137]	8.31	0.64	> 25000	8	–	–	–	–	–
